B1: Spirochaeta thermophila YeeE [Spirochaeta thermophila] / Spirochaeta thermophila YeeD (WT), His6-tagged [Spirochaeta thermophila] (parent complex)
chain 1: MIWTGLLVGFLFGIVLQRGRICFNSAFRDVLLFKDNYLFKLAVFTLALEMILFVLLSQVGLMQMNPKPLNLVGNIIGGFVFGLGMVLAGGCASGVTYRVGEGLTTAWFAALFYGLGAYATKSGAFSWWLSWVGQFKSPLSVEESAYYVKGAGPTISSVLGLNPWIPALVIAALFILWAFGTKTTSRETKFNWKIASVCLALVAGLGFITSTLSGRKYGLGITGGWINLFQGFLTNSPLNWEGLEIVGIILGAGVAAAVAGEFKLRMPKNPVTYLQVGIGGLLMGIGAVTAGGCNIGHFLTGVPQLALSSWLASIFFILGNWTMAWILF
chain 2: MANYQVSKEIDVRGEVCPIPDVEAKRAVQSANDGEIILVRIDYPLSKERIPETVKKLGSEVLEIEEAAPGEWNIYIKVKK

Variants of: B1
Assay: BLI; Octet buffer (20 mM Tris-HCl (pH 8.0), 300 mM NaCl, 0.1% (w/v) DDM, 1 mM β-ME); response at 120 s; parent: 1.8; read off a plot

Row | response [nm] | Variant
1 | ~0.14 | chain 2 C17A
2 | ~0.04 | chain 2 D42A
